Data published in PMC11206591, “Novel Ultrasound-Responsive Amyloid Formulation” (Pharmaceuticals, 2024).

Molecular target: the molecule itself
Experiment: thioflavin T (ThT) fluorescence; 200 µM peptide in 100 mM ammonium acetate buffer pH 7, 37 °C in a thermomixer, read at 24 h and 48 h; with and without Pluronic F127 0.01% and Dox; ThT 50 µM in 20 mM Tris pH 8, 440/482 nm

B1: Receptor-interacting protein RIP 3 peptide NIYNCSGVQVGD (peptide)
peptide: NIYNCSGVQVGD
notes: The amyloids were formed from the peptide alone and also with Pluronic F127 (0.01% w/v) and/or Doxorubicin; also called 12-amino-acid peptide from the amyloidogenic region of RIP3; source: synthetic peptide, custom-synthesized from Genscript
binding result: binds
